IntAct's records for PubMed 23395371

B1: Ras-related protein Rab-7L1 (Rattus norvegicus (Rat)), Q63481 (parent)
chain: MGSRDHLFKVLVVGDAAVGKTSLVQRYSQDSFSKHYKSTVGVDFALKVLQWSDSEMVRLQLWDIAGQERFTSMTRLYYRDASACVIMFDVTNATTFSNSQRWKQDLDSKLTLPSGEPVPCLLLANKSDLSPWAVSRDQIDRFSKENGFTGWTETSVKENKNINEAMRVLVEKMMNNSREDIMSSSTQGNYINLQTKPSPGWTCC

Variants of: B1
Details: with lrrk2_human LRRK2, Q5S007
Sequence of lrrk2_human LRRK2, Q5S007 (Q5S007 whole entry): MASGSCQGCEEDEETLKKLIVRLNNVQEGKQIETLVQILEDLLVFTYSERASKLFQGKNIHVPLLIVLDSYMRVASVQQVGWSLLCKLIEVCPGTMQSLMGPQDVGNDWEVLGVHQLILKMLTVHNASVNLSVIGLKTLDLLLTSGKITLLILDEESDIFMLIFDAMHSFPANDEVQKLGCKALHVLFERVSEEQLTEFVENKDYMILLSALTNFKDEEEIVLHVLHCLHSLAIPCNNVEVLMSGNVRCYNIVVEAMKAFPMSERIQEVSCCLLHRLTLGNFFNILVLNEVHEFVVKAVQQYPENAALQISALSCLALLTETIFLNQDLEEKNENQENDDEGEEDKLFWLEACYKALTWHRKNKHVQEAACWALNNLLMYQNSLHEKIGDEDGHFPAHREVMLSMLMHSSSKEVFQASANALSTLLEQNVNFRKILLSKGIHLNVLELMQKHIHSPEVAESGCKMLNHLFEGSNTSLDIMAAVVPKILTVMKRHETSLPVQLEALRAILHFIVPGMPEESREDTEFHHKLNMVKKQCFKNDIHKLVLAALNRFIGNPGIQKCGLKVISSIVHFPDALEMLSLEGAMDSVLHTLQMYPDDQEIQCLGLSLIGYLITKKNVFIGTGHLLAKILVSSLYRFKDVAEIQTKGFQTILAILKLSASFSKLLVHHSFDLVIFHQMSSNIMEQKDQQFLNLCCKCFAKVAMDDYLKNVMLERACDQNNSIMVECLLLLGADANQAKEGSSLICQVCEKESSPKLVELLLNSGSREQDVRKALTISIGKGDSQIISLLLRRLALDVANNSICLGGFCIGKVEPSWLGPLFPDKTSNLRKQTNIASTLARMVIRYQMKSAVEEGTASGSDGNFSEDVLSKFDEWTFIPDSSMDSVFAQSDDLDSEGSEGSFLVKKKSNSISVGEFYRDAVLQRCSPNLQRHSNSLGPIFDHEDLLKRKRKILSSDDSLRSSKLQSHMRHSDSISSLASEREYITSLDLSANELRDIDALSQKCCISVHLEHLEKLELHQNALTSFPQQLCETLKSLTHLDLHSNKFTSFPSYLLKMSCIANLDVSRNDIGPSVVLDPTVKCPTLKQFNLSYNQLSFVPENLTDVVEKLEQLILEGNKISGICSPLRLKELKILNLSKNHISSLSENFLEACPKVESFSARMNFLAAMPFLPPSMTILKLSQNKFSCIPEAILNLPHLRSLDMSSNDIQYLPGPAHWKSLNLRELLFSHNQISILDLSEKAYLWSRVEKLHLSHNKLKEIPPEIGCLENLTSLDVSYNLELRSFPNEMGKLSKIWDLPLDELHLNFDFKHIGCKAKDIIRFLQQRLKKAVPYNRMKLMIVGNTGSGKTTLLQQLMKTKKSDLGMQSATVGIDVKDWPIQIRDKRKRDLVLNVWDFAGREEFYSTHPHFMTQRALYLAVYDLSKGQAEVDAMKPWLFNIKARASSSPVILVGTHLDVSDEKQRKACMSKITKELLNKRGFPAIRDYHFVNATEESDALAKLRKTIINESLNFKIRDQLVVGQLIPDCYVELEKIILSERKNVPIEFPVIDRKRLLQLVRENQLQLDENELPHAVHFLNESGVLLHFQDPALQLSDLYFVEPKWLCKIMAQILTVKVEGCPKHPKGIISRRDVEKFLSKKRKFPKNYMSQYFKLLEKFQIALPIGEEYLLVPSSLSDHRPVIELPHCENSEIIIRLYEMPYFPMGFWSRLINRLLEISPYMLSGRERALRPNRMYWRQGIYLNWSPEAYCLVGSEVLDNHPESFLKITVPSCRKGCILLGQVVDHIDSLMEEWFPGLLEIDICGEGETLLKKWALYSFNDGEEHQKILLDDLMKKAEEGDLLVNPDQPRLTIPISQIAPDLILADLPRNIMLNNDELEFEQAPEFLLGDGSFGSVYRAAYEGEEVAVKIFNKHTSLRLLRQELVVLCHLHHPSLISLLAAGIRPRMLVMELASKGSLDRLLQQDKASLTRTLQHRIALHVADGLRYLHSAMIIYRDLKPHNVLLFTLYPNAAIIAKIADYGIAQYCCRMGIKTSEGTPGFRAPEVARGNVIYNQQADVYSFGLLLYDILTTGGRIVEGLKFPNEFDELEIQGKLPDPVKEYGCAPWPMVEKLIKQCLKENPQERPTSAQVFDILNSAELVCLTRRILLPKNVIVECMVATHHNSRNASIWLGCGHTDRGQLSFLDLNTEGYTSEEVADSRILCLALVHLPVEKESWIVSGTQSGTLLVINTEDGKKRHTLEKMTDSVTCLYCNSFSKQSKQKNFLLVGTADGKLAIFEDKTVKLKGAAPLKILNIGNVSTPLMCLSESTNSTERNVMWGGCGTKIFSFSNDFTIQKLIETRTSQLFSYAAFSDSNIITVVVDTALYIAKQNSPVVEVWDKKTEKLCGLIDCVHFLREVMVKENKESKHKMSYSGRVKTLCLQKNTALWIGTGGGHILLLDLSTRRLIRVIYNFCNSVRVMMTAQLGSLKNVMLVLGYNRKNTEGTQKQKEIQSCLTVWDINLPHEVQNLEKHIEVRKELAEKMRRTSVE

effect of a mutation on the interaction	Variant
decreasing interaction	Q67L
decreasing interaction	T21N
